Experiments:
[1] = target: T1, Vps16 (CORVET and HOPS subunit, SNARE-binding module) (yeast, UniProt Q03308 1-798); experiment: cryo-EM structure; single-particle cryo-EM of the hexameric CORVET co-expressed in yeast and purified by 3xFLAG on Vps8 and SEC; about 0.8 mg/ml; consensus map 4.6 Å, local refinements to 3.8 Å; conditions: both partners purified
T1 construct: Vps16, yeast, subunit shared by CORVET and HOPS
T1 sequence: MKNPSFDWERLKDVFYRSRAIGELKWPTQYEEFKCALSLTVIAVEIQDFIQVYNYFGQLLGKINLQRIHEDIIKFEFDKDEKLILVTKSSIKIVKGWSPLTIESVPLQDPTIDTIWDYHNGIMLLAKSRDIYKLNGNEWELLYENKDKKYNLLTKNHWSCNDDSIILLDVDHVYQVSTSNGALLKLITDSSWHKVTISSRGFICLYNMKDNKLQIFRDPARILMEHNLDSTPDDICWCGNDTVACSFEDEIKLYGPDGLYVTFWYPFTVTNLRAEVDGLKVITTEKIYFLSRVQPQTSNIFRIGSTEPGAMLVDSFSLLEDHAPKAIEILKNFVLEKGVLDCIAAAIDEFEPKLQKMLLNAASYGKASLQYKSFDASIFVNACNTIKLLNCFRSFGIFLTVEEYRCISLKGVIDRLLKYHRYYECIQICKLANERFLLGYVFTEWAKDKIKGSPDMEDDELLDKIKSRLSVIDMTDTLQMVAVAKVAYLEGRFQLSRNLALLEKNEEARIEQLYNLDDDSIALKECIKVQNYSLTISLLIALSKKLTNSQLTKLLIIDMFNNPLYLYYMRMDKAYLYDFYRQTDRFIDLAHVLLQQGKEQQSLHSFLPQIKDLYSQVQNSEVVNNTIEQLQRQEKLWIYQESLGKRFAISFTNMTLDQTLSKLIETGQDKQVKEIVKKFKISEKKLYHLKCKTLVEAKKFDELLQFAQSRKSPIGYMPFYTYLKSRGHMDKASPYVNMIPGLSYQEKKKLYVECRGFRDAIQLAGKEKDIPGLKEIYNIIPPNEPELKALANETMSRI

[2] = target: T2, Vps18 (CORVET and HOPS core subunit) (yeast, UniProt P27801 1-918); experiment: as above; conditions: both partners purified
T2 construct: Vps18, yeast, core subunit shared by CORVET and HOPS
T2 sequence: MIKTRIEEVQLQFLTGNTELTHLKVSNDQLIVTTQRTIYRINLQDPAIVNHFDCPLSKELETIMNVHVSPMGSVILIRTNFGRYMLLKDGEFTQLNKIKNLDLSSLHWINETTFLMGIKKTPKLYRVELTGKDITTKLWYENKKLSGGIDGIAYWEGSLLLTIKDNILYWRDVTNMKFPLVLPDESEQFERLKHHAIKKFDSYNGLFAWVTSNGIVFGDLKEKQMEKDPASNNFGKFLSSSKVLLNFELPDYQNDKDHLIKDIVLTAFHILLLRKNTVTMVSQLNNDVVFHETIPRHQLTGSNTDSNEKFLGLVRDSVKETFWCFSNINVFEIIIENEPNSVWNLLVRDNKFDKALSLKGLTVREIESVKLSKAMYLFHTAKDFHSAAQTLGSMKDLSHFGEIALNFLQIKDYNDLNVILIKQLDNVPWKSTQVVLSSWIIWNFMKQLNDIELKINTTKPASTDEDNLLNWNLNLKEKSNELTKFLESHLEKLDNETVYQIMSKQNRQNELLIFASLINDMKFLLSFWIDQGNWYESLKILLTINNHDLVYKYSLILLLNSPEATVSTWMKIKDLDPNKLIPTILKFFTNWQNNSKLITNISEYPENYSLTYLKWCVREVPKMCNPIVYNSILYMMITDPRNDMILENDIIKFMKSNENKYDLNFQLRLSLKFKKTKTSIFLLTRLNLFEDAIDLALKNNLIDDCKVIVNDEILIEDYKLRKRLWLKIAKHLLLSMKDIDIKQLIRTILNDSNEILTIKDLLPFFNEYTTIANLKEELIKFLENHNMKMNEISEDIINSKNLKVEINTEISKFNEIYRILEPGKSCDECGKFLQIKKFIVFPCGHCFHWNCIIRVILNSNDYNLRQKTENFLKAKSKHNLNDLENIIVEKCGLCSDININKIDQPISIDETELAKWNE

binding result [1]: binds
binding result [2]: binds
B1: Vps33 (CORVET and HOPS subunit, SM protein of the SNARE-binding module) (natural protein, yeast)
chain: MNRFWNTKKFSLTNADGLCATLNEISQNDEVLVVQPSVLPVLNSLLTFQDLTQSTPVRKITLLDDQLSDDLPSALGSVPQMDLIFLIDVRTSLRLPPQLLDAAQKHNLSSLHIIYCRWKPSFQNTLEDTEQWQKDGFDLNSKKTHFPNVIESQLKELSNEYTLYPWDLLPFPQIDENVLLTHSLYNMENVNMYYPNLRSLQSATESILVDDMVNSLQSLIFETNSIITNVVSIGNLSKRCSHLLKKRIDEHQTENDLFIKGTLYGERTNCGLEMDLIILERNTDPITPLLTQLTYAGILDDLYEFNSGIKIKEKDMNFNYKEDKIWNDLKFLNFGSIGPQLNKLAKELQTQYDTRHKAESVHEIKEFVDSLGSLQQRQAFLKNHTTLSSDVLKVVETEEYGSFNKILELELEILMGNTLNNDIEDIILELQYQYEVDQKKILRLICLLSLCKNSLREKDYEYLRTFMIDSWGIEKCFQLESLAELGFFTSKTGKTDLHITTSKSTRLQKEYRYISQWFNTVPIEDEHAADKITNENDDFSEATFAYSGVVPLTMRLVQMLYDRSILFHNYSSQQPFILSREPRVSQTEDLIEQLYGDSHAIEESIWVPGTITKKINASIKSNNRRSIDGSNGTFHAAEDIALVVFLGGVTMGEIAIMKHLQKILGKKGINKRFIIIADGLINGTRIMNSIS
notes: Vps33, yeast, subunit shared by CORVET and HOPS

From publication PMC11187117, “Structure of the endosomal CORVET tethering complex” (Nature Communications, 2024)
